Experimental data reported in patent publication US20250197513A1, “OSMR-SPECIFIC MONOCLONAL ANTIBODIES AND METHODS OF THEIR USE” (THE BOARD OF REGENTS OF THE UNIVERSITY OF TEXAS SYSTEM, priority 2021, published 2025).

Tested on: HEYA8 ovarian cancer cells
Assay: In vivo efficacy and survival, intraperitoneal HEYA8-Luc+ ovarian cancer model
Parameters: species or system athymic nude mice
Details: survival monitored for 100 days; antibody 10 mg/kg twice a week for 5 weeks; OSM 250 ng/kg
Protocol: To test the in vivo efficacy of anti-OSMR antibodies and overall survival efficiency post-treatment, Heya8-Luc+ cells (3×10^4 cells/animal) were intraperitoneally injected into 4-6-week-old athymic female nude mice (Nu/Nu) (Envigo, Madison, WI, USA) with a 27-gauge needle. Mice were monitored for tumor growth by bio-luminescence imaging IVIS100 and after 7 days post injection, randomly divided into 7 mice per group (efficacy testing) and 10 mice per group (survival studies). Mice were treated intraperitoneally twice weekly with Control IgG.
All the antibody clones were given at a concentration 10 mg/kg b.w twice a week for 5 weeks. All mice were euthanized at the end of 5 weeks or when moribund. Tumors were harvested and weighed, total number of tumor nodules and metastasis to distant organs were counted and imaged using IVIS100. The tumors were excised and proceeded for IHC, Western blotting and qPCR. For survival studies, the treatments were stopped after 5 weeks, and survival progression was monitored for a total of 100 days.

B1: OSM: recombinant human oncostatin M, ligand of OSMR, given with control IgG to stimulate tumor growth (protein)
chain: AAIGSCSKEYRVLLGQLQKQTDLMQDTSRLLDPYIRIQGLDVPKLREHCRERPGAFPSEETLRGLGRRGFLQTLNATLGCVLHRLADLEQRLPKAQDLERSGLNIEDLEKLQMARPNILGLRNNIYCMAQLLDNSDTAEPTKAGRGASQPPTPTPASDAFQRKLEGCRFLHGYHRFMHSVGRVFSKWGESPNRSRR
  median survival: 29 days
